Assay results reported in patent publication US12070483B2, “Compositions and methods for treatment of acute lung injury” (THE TRUSTEES OF THE UNIVERSITY OF PENNSYLVANIA, priority 2018, dated 2024).

How the values were obtained:
Prdx6 [1] = target: T1, Prdx6 (Mus musculus, UniProt O08709); details: PIP-2 2 μg/g in liposomes, for at least 24 h; shown previously; cited from earlier work
T1 construct: Lungs were harvested at intervals between 4 and 72 h after the PIP-2 administration, homogenized, and analyzed for Prdx6-PLA2 activity; from tissue; host or cells: mouse lung homogenate (wild type mice)
T1 sequence (O08709 1-224): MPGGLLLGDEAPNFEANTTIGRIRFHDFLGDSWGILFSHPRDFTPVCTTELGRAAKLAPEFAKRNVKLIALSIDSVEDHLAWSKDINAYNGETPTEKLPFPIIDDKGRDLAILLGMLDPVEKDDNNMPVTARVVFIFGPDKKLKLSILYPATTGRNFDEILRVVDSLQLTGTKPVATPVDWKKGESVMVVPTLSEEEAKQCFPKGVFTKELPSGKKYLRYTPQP

Prdx6 [2] = target: T1, Prdx6; test: aiPLA2 (Prdx6-PLA2) activity of mouse lung homogenate after IT or IV injection of PIP; format: in vivo; set-up: key to aiPLA2 activity, figure in parentheses (0 h = 100): Prdx6-PLA2 activity as % of 0 h value (0 h = 100); details: for Prdx6-PLA2 activity of mouse lung homogenate: Table 6; for aiPLA2 activity of mouse lung: 24 hours after IV injection, 2 μg/g, liposomes only 8.81
Method: FIG. 6: PIP-2 in liposomes was administered to mice either intratracheally (IT) or intravenously (IV) at 0 time. Lungs were harvested at intervals between 4 and 72 h after the PIP-2 administration, homogenized, and analyzed for Prdx6-PLA2 activity. PIP-2 is effective by either the IT or IV route with a calculated ½ time for recovery of ˜50 h. Results are mean+SE for N=3-4.
PIP-2 in liposomes injected IV or IT inhibits Prdx6 activity of the lung homogenate. Maximal inhibition was seen within 4 hours after administration of PIP-2. Recovery from inhibition began at ˜36 hours and was complete by 48 hours. Results are similar for PIP-1,2,4 (PIP-3 and -5 were not tested). […] Effectiveness requires liposomes for peptide delivery. Inhibition after IT or IV administration was similar.

aiPLA2 activity = target: T2, aiPLA2 activity (Homo sapiens, UniProt P30041); test: Inhibitory activity of PIP-2 after storage as dry powder at room temp.; format: biochemical; details: for aiPLA2 Activity: PIP-2 stored as dry powder at room temp.
T2 sequence (P30041 1-224): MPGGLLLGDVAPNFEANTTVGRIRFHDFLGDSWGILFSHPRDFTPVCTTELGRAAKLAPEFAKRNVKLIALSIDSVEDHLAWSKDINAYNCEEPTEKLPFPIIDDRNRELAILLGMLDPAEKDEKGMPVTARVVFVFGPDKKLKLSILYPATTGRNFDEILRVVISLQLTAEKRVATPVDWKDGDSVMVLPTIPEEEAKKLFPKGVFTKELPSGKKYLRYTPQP
Method: aiPLA2 activity was measured at intervals to determine how long the peptide could maintain its efficacy as an inhibitor of aiPLA2 activity. The peptide was stable for the 4 months of observation.

NADPH oxidase (NOX2) = test: H2O2 production (Amplex red) of perfused lung 5 min after PIP-2 in saline or liposomes; format: in vivo, mouse; details: IT or IV
Method: FIGS. 1A and 1B: Wild type C57Bl/6 mice at age 8-10 weeks were injected with 2 ug/g body wt of PIP-2 either through an intratracheal catheter (IT) or intravenously (IV). The injected peptide was dissolved in saline or was incorporated into unilamellar liposomes consisting of dipalmitoyl phosphatidylcholine (DPPC), egg phosphatidylcholine (PC), phosphatidylglycerol (PG), and cholesterol (molar ratio of lipids, 50:25:10:15). […] Mice were sacrificed after 5 min, lungs were perfused until cleared of blood, and then subjected to recirculating perfusion under temperature-controlled (37° C.) conditions in the presence of the fluorescent indicator Amplex red plus horseradish peroxidase (HRP) in order to monitor the oxidation of Amplex red by H2O2. The fluorescence of aliquots of perfusate was measured at the indicated times and expressed as arbitrary fluorescence units (AFU). The increasing fluorescence with time of perfusion indicates the production of H2O2 reflecting the activation of cellular NADPH oxidase (NOX2).
The lungs were removed from mice and studied in an isolated system. The slope of the lines indicates the production of oxidants (H2O2).

ROS production in lung = test: Lung ROS production (DFF-DA fluorescence) after IT LPS; format: in vivo, mouse; details: PIP-2 with IT LPS 5 μg/g; 6, 12 and 24 h
Method: FIGS. 9A and 9B: PIP-2 inhibits the increased lung aiPLA2 activity and increased ROS generation after LPS administration. LPS (5 μg/g body weight) was administered by intratracheal (IT) instillation along with liposomes alone (labeled as LPS) or with PIP-2 in liposomes (labeled as +PIP-2). Control was liposomes alone without LPS (labeled as control). Mice were sacrificed at 6, 12, or 24 h after LPS and lungs were perfused in situ for 15 min with saline solution containing the fluorophore difluorofluoroscein diacetate (DFF-DA). Lungs then were homogenized and assayed for: FIG. 9A: aiPLA2 activity; FIG. 9B: fluorescence of the lung homogenate as an index of ROS production. Results are mean±SE for N=3 for A and N=4 for B. *P<0.05 vs. Control and +PIP-2 at the same time point; ΔP<0.05 vs. corresponding value at 6 h.
To determine lung ROS production after LPS treatment, intact mice were treated with LPS (5 μg/g)±PIP-2 (2 μg/g). Mice were anesthesized at 6, 12, or 24 h after treatment with LPS and lungs in situ were cleared of blood and then perfused for […] with saline solution containing the fluorophore DFF-DA that is hydrolyzed intracellularly to DFF. Lungs were then homogenized, and fluorescence of the homogenate was measured at Ex 495 nm, Em 525 nm. Lung fluorescence was expressed as AFU per minute of perfusion with normalization to the mouse body wt.

[3] = system: C57Bl/6 mice, LPS-mediated lung injury; test: Acute lung injury after intratracheal LPS (5 μg/g), lungs evaluated at 24 h; format: in vivo, mouse; details: LPS 5 μg/g IT, sacrifice at 24 hrs

## LHDFRHQIL (Inhibitory peptide.) [PIP-2]
Prdx6 [1]
  inhibition of lung aiPLA2 activity: ~90%
Prdx6 [2]; IT, 0 h post injection
  aiPLA2 activity of mouse lung homogenate: 8.84 ± 0.35 nmol/hr/mg protein
  aiPLA2 activity, figure in parentheses (0 h = 100): 100
Prdx6 [2]; IT, 4 h post injection
  aiPLA2 activity of mouse lung homogenate: 1.56 ± 0.03 nmol/hr/mg protein
  aiPLA2 activity, figure in parentheses (0 h = 100): 18
Prdx6 [2]; IT, 12 h post injection
  aiPLA2 activity of mouse lung homogenate: 1.61 ± 0.04 nmol/hr/mg protein
  aiPLA2 activity, figure in parentheses (0 h = 100): 18
Prdx6 [2]; IT, 24 h post injection
  aiPLA2 activity of mouse lung homogenate: 1.63 ± 0.14 nmol/hr/mg protein
  aiPLA2 activity, figure in parentheses (0 h = 100): 18
Prdx6 [2]; IT, 36 h post injection
  aiPLA2 activity of mouse lung homogenate: 2.04 ± 0.04 nmol/hr/mg protein
  aiPLA2 activity, figure in parentheses (0 h = 100): 27
Prdx6 [2]; IT, 48 h post injection
  aiPLA2 activity of mouse lung homogenate: 2.95 ± 0.10 nmol/hr/mg protein
  aiPLA2 activity, figure in parentheses (0 h = 100): 33
Prdx6 [2]; IT, 72 h post injection
  aiPLA2 activity of mouse lung homogenate: 8.78 ± 0.18 nmol/hr/mg protein
  aiPLA2 activity, figure in parentheses (0 h = 100): 99
Prdx6 [2]; IV, 0 h post injection
  aiPLA2 activity of mouse lung homogenate: 8.85 ± 0.3 nmol/hr/mg protein
  aiPLA2 activity, figure in parentheses (0 h = 100): 100
Prdx6 [2]; IV, 4 h post injection
  aiPLA2 activity of mouse lung homogenate: 1.45 ± 0.07 nmol/hr/mg protein
  aiPLA2 activity, figure in parentheses (0 h = 100): 16
Prdx6 [2]; IV, 12 h post injection
  aiPLA2 activity of mouse lung homogenate: 1.58 ± 0.04 nmol/hr/mg protein
  aiPLA2 activity, figure in parentheses (0 h = 100): 18
Prdx6 [2]; IV, 24 h post injection
  aiPLA2 activity of mouse lung homogenate: 1.77 ± 0.11 nmol/hr/mg protein
  aiPLA2 activity, figure in parentheses (0 h = 100): 20
Prdx6 [2]; IV, 36 h post injection
  aiPLA2 activity of mouse lung homogenate: 2.14 ± 0.03 nmol/hr/mg protein
  aiPLA2 activity, figure in parentheses (0 h = 100): 24
Prdx6 [2]; IV, 48 h post injection
  aiPLA2 activity of mouse lung homogenate: 3.03 ± 0.05 nmol/hr/mg protein
  aiPLA2 activity, figure in parentheses (0 h = 100): 34
Prdx6 [2]; IV, 72 h post injection
  aiPLA2 activity of mouse lung homogenate: 8.49 ± 0.10 nmol/hr/mg protein
  aiPLA2 activity, figure in parentheses (0 h = 100): 96
Prdx6 [2]; PIP-2 in liposomes IV or IT
  time at which recovery from inhibition began: ~36 h
  time at which recovery from inhibition was complete: ≤ 48 h
  time to maximal inhibition of Prdx6 activity of lung homogenate: ≤ 4 h
Prdx6 [2]; PIP-2 in liposomes, IT or IV
  calculated ½ time for recovery of Prdx6-PLA2 activity: ~50 h
Prdx6 [2]; IT, lungs lavaged prior to assay, 0 post injection
  Prdx6-PLA2 activity of mouse lung homogenate: 8.1 ± 0.3 nmol/hr/mg protein
Prdx6 [2]; IT, lungs lavaged, 24 hr post injection
  Prdx6-PLA2 activity of mouse lung homogenate: 1.2 ± 0.02 nmol/hr/mg protein
Prdx6 [2]; IT, lungs lavaged, 48 hr post injection
  Prdx6-PLA2 activity of mouse lung homogenate: 3.0 ± 0.2 nmol/hr/mg protein
Prdx6 [2]; IT, lungs lavaged, 72 hr post injection
  Prdx6-PLA2 activity of mouse lung homogenate: 8.3 ± 0.9 nmol/hr/mg protein
aiPLA2 activity; 0 days, no PIP-2 100
  aiPLA2 Activity: 29.7 ± 2.9 nmol/min/mg prot.
aiPLA2 activity; 30 d
  aiPLA2 Activity: 31.1 ± 1.3 nmol/min/mg prot.
aiPLA2 activity; 45 d
  aiPLA2 Activity: 31.8 ± 1.0 nmol/min/mg prot.
aiPLA2 activity; 60 d
  aiPLA2 Activity: 32.8 ± 0.9 nmol/min/mg prot.
aiPLA2 activity; 120 d, no PIP-2 at 120 d 103
  aiPLA2 Activity: 31.9 ± 2.4 nmol/min/mg prot.
aiPLA2 activity; room temp., 4 months of observation
  stability as dry powder: stable
NADPH oxidase (NOX2); PIP-2 2 ug/g in liposomes
  generation of H2O2: markedly inhibits
NADPH oxidase (NOX2); PIP-2 2 ug/g in saline
  effect on the rate of H2O2 production: no effect
ROS production in lung
  ROS-generated fluorescence of lung after LPS: dramatic decrease

## LYEIKHQIL (Inhibitory peptide.) [PIP-4]
[3]; PIP-4 2 μg/g IT @0 hrs, LPS alone 166
  protein: 77 ± 3 μg protein/g wt
[3]; PIP-4 2 μg/g IT @0 hrs, LPS alone 374
  TBARS: 78 ± 4 pmol/mg prot.
[3]; PIP-4 2 μg/g IV @12 hr
  TBARS: 84 ± 2 pmol/mg prot.
  Wet/Dry lung weight ratio: 5.94 ± 0.05
Prdx6 [2]; alone, no liposomes
  aiPLA2 activity of mouse lung: 8.43 ± 0.23 (n = 3) nmol/hr/mg prot
Prdx6 [2]; in liposomes
  aiPLA2 activity of mouse lung: 1.55 ± 0.02 (n = 3) nmol/hr/mg prot
Prdx6 [2]; IV, 0 post injection
  Prdx6-PLA2 activity of mouse lung homogenate: 8.0 ± 0.7 nmol/hr/mg protein
Prdx6 [2]; IV, 24 hr post injection
  Prdx6-PLA2 activity of mouse lung homogenate: 1.1 ± 0.02 nmol/hr/mg protein
Prdx6 [2]; IV, 48 hr post injection
  Prdx6-PLA2 activity of mouse lung homogenate: 2.8 ± 0.2 nmol/hr/mg protein
Prdx6 [2]; IV, 72 hr post injection
  Prdx6-PLA2 activity of mouse lung homogenate: 7.8 ± 1.2 nmol/hr/mg protein
Prdx6 [2]; IV, 96 hr post injection
  Prdx6-PLA2 activity of mouse lung homogenate: 8.1 ± 0.2 nmol/hr/mg protein
